Measurements published in US20250215091A1, “Anti-GAL3 Antibodies and Compositions” (Les Laboratoires Servier, priority 2022, published 2025).
Substitutions are numbered along the chain they refer to.

B1: H10: anti-Gal3 monoclonal antibody, IgG1 format; VH SEQ ID NO 44, VL SEQ ID NO 45 (antibody, V domains shown)
VH: EVQLVESGGSLVKPGGSLRLSCAASGFTFSNYYMNWVRQAPGKGLEWISYINGASRDISYADFVKGRFTISRDNAKNSLYLQMNSLRAEDTAVYYCVRSSYGYSNYGSGMDVWGRGTLVTVSS
VL: QSVLTQPASVSGSPGQSITISCAGTSSDVGGSYNVAWYQQHPGKAPKLMIYNDANRPSGVSNRFSGSKSGNTASLTISGLQAEDEADYYCSSNTADSTRVFGGGTKLEIK
B2: D06: anti-Gal3 monoclonal antibody, IgG1 format; VH SEQ ID NO 38, VL SEQ ID NO 39 (antibody, V domains shown)
VH: EVQLVESGGSLVKPGGSLRLSCAASGFTFSNYNMNWVRQAPGKGLEWISSIYGSSRYIYYADFVKGRFTISRDNAKNSLYLQMNSLRAEDTAVYYCVRSGYGGMDVWGRGTLVTVSS
VL: B1 VL with S32Y, Y33N, N34G, A36S, N52Y, A54S, N55Y, N93G, A95D, D96Y
modifications: IgG1 constant region

What was measured:
[1] = test system: murine model of HOCI-induced fibrosis; test: HOCI-induced murine fibrosis model: skin thickness; type: in vivo, mice; details: second experiment, sustained effect until day 63
Method: (§1) In a first experiment, control mice (n=12) received a daily intradermal injection of 300 μL of sterile phosphate buffer saline (PBS) for 5 consecutive days per week, for a duration of 42 days. HOCI alone and HOCI with antibody (HOCI-antibody) treated mice (n=12 per group) received a daily intradermal injection of 300 μL of HOCI for 5 consecutive days per week, for a duration of 42 days. Antibody-treated mice also received a subcutaneous injection of 20 mg/kg antibody, starting at day minus one and every 5 days between day 5 and day 40. Each antibody was solubilized in sterile, endotoxin-free PBS before injection. In a second experiment, the same protocol was applied, except that duration of the study was 63 days and antibodies were given every 7 days starting at day minus 1 until day 62.
(§2) Mice that received daily injection of HOCI were also treated by intratracheal instillation of 0.5 mg/kg of TD139 compound (HOCI-TD139), a small molecule Gal3 inhibitor. In a first experiment, the administrations started from day 21 and the compound was given every 3 days until day 39. In a second experiment, the administrations started from day 20 and the compound was given every 3 days until day 62. TD139 was initially dissolved in 100% DMSO then diluted 50-fold in endotoxin-free PBS before administration.
The evolution of skin thickness was monitored by using an external caliper, every seven days until sacrifice.

rat model of ARDS [2] = test: Rat ARDS model (LPS challenge): neutrophils counts in BALF; type: in vivo; details: antibodies 14 mg/kg x3 prior to LPS; dexamethasone 10 mg/kg oral; vs LPS group; FIG. 16
Method: (§3) Positive control rats received 3 doses of sterile phosphate buffer at day minus 11, minus 6 and minus 1 prior LPS challenge (0.25 mg/kg by subcutaneous route at day 1). Negative control rats received one oral dose of Dexamethasone at 10 mg/kg (dissolved in 0.5% carboxymethyl cellulose in deionized water) 2 hours prior LPS challenge (0.25 mg/kg by subcutaneous route at day 1). LPS (lipopolysaccharide) causes an acute inflammatory response, whereas dexamethasone has anti-inflammatory effects thus being the reference treatment in this model.
(§4) Antibody-treated rats received 3 doses of antibodies (14 mg/kg) at day minus 11, minus 6 and minus 1 prior to LPS challenge (0.25 mg/kg by subcutaneous route at day 1). Each antibody was solubilized in sterile PBS before injection.
(§5) Control rats of the experiment received 3 doses of sterile phosphate buffer at day minus 11, minus 6 and minus 1 without LPS challenge at day 1.
(§6) The impact of anti-Gal3 antibody treatment in LPS challenged rats were evaluated by quantification of neutrophils in Bronchoalveolar Lavage Fluid and compared to the positive control group (LPS challenge with PBS treatment) (FIG. 16). […] Neutrophils numeration levels were decreased after treatment with anti-inflammatory dexamethasone.

rat model of ARDS [3] = test: Rat ARDS model (LPS challenge): total BALF protein (BCA assay); type: in vivo; details: antibodies 14 mg/kg x3 prior to LPS; dexamethasone 10 mg/kg oral; vs LPS group; FIG. 17
Method: as §3, §4, §5
as §6, with “proteins (by BCA assay)” for “neutrophils”, “BALF” for “Bronchoalveolar Lavage Fluid”, “17). The presence of protein in BALF reflects the damage to the air-blood barrier.” for “16).”, “Total BALF protein” for “Neutrophils”

plasma TNF alpha = test: Rat ARDS model (LPS challenge): plasma TNF alpha (MSD); type: in vivo; details: 4 h following LPS challenge; vs LPS group; FIG. 18
Method: as §3, §4, §5
For all rats, plasma sampling was performed 4 h following LPS challenge.
The impact of anti-Gal3 antibody treatment in LPS challenged rats were evaluated on plasma cytokine levels, namely TNF alpha and KC-GRO cytokines, and compared to the positive control group (LPS challenge with PBS treatment) (respectively FIG. 18A and FIG. 18B). TNF alpha and KC-GRO were quantified by using the MSD technology from Mesoscale.

[4] = test system: murine model of HOCI-induced fibrosis; test: HOCI-induced murine fibrosis model: skin and lung collagen (Picrosirius red); type: in vivo, mice; details: first experiment
Method: as §1, §2
At the day of study termination of the first experiment (day 42), skin and lung samples were taken, formalin-fixed and processed to individual paraffin wax blocks. Sections of skin and lung were cut from the blocks and, after rehydration, stained with Picrosirius Red coloration according to the manufacturer's protocol. Subsequently, each slide was examined and remotely analyzed employing the web-based Image J software

[5] = test system: murine model of bleomycin-induced fibrosis; test: Bleomycin-induced murine lung fibrosis model: body weight and body weight metrics; type: in vivo, mice
Method: (§7) Control bleomycin mice named ‘Bleo’ received an administration of 1.65 mg/kg bleomycin by the oropharyngeal route on Day 1. […] Antibody-treated mice also received an administration of 1.65 mg/kg bleomycin by the oropharyngeal route on Day 1 and a subcutaneous injection of 20 mg/kg antibody, starting on day minus one and on days 4, 8, 12, 16 and 20. Each antibody was solubilized in sterile, endotoxin-free PBS before injection. Mice that received bleomycin were also treated by oropharyngeal administration of 0.5 mg/kg of TD139 compound (Bleo-TD139), a small molecule Gal3 inhibitor, starting on day 12 and every 2 days until day 20. TD139 was initially dissolved in 100% DMSO.
Mice were weighed daily. Their growth curves are represented on FIG. 12. Control mice had normal growth with a mean percent increase of 6.4% of their initial body weight measured on day minus 1.
Body weight metrics were assessed by using two parameters called Time to weight growth (TWG) and Time to baseline (TTB), shown on FIG. 13. Time to weight growth corresponds to the point of inflection when mice show an ascending growth curve and start to regain weight within the course of the experiment. Time to baseline corresponds to the number of days required for mice to recover their initial body weight (day minus 1). The median TWG was 10 days for the untreated bleomycin group. […] TD139 compound had no efficacy on this parameter (p-value 0.53).

[6] = test system: murine model of bleomycin-induced fibrosis; test: Bleomycin-induced murine lung fibrosis model: Modified Ashcroft fibrosis score; type: in vivo, mice
Method: as §7
Mice were submitted for terminal euthanasia on day 21. The lungs were collected for histopathological examination and gravity inflation-fixed with 10% neutral buffered formalin (NBF) before being immersion fixed in NBF.
Sections were taken and then placed on three slides as indicated by the code numbers on FIG. 14.
Three longitudinal sections parallel to and bisecting the main stem bronchus were trimmed from the left lung and right caudal lung lobes and mounted in cassettes 01 and 02, respectively. The right cranial, middle and accessory lung lobes were sectioned longitudinally and mounted in cassette 03. All sections were stained with picrosirius red and scored in a blinded manner by a certified veterinary pathologist using the Modified Ashcroft fibrosis score (0-8), where “0” corresponds to “normality (no fibrosis) and “8” corresponds to the highest possible fibrosis score, as described by Hübner et al. (2008) but based on assessment across the whole section of lung.

Molecule | HOCI-induced increase in skin thickness ([1]; 63 days, antibody 20 mg/kg s.c. every 7 days, FIG. 7B) | day from which reduction of skin thickness was significant [1] | neutrophils counts in BALF (rat model of ARDS [2]) | total BALF protein (rat model of ARDS [3]) | TNF alpha plasma levels (plasma TNF alpha) | lung collagen levels ([4]; day 42, FIG. 8A) | skin collagen levels ([4]; day 42, vs HOCI group, FIG. 8B) | body weight status on day 21 ([5]; bleomycin 1.65 mg/kg, antibody 20 mg/kg s.c.) | recovery of body weight ([5]; bleomycin 1.65 mg/kg, antibody 20 mg/kg s.c., FIG. 12) | reduction of median Time to baseline (TTB) ([5]; median TTB 20 days for untreated bleomycin group, FIG. 13) | reduction of median Time to weight growth (TWG) ([5]; median TWG 10 days for untreated bleomycin group, FIG. 13) | frequency of animals with fibrosis score of 2 ([6]; day 21, 7.4% in untreated bleomycin group) | frequency of animals with median fibrosis scores of 3 or 4 ([6]; day 21, 87.6% in untreated bleomycin group) | attenuation of lung fibrosis (overall) ([6]; day 21, FIG. 15)
B1 | significantly reduced | 14 days | also decreased | also decreased | also decreased, displaying an intermediary profile |  |  |  |  |  |  |  |  | 
B2 |  |  | also decreased | also decreased | also decreased, displaying an intermediary profile | restored lung collagen levels to those of control mice | non significant downward trend | full weight recovery | more rapid recovery of body weight | 5.5 days | 2.8 days | 30% | 64.5% | clear evidence for attenuation of lung fibrosis
